T1: FcγRIIa (UniProt P12318 34-217, limits assumed)
T1 construct: Used in ELISA; construct not described
T1 sequence (looked up): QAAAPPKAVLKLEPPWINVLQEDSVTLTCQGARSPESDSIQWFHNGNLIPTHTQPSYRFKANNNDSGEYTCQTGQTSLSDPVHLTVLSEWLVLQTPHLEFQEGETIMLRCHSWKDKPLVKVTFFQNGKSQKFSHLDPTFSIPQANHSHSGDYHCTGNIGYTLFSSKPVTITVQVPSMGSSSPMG

T2: FcγRIIb (UniProt P31994 43-217, limits assumed)
T2 construct: Used in ELISA; construct not described
T2 sequence (looked up): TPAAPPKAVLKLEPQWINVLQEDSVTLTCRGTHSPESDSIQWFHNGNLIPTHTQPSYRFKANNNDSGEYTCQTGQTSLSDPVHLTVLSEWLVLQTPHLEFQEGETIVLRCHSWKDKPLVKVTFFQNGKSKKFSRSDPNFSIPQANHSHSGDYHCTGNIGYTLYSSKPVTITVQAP

B1: Rituximab (antibody, human IgG1, kappa)
heavy: not shown
light: QIVLSQSPAILSASPGEKVTMTCRASSSVSYIHWFQQKPGSSPKPWIYATSNLASGVPVRFSGSGSGTSYSLTISRVEAEDAATYYCQQWTSNPPTFGGGTKLEIKRTVAAPSVFIFPPSDEQLKSGTASVVCLLNNFYPREAKVQWKVDNALQSGNSQESVTEQDSKDSTYSLSSTLTLSKADYEKHKVYACEVTHQGLSSPVTKSFNRGEC
notes: Commercial IgG1 with its native heterogeneous Fc glycans; also called Rituxan; Roche-Rituximab
B2: G6 glycoengineered Rituximab (antibody, human IgG1, kappa)
heavy: not shown
light: B1 light
modifications: homogeneous afucosylated Fc N-glycan (Asn-297): GalGlcNAc2Man3GlcNAc2
notes: IgG1; also called anti-CD20 GAb106
B3: mono-GlcNAc Rituximab (antibody, human IgG1, kappa)
heavy: not shown
light: B1 light
modifications: single GlcNAc (defucosylated) at the Fc N-glycosylation site (Asn-297)
notes: IgG1; made from Rituximab with fucosidase BfFucH and an endoglycosidase; also called N-Rituximab
B4: 2,6-NSCT-Rituximab (antibody, human IgG1, kappa)
heavy: not shown
light: B1 light
modifications: homogeneous afucosylated Fc N-glycan (Asn-297): Sia2(α2-6)Gal2GlcNAc2Man3GlcNAc2
notes: also called anti-CD20 GAb101
B5: 2,3-NSCT-Rituximab (antibody, human IgG1, kappa)
heavy: not shown
light: B1 light
modifications: homogeneous afucosylated Fc N-glycan (Asn-297), 2,3-sialylated: Sia2(α2-3)Gal2GlcNAc2Man3GlcNAc2
B6: G3 glycoengineered Rituximab (antibody, human IgG1, kappa)
heavy: not shown
light: B1 light
modifications: homogeneous afucosylated Fc N-glycan (Asn-297): GlcNAcMan3GlcNAc2
notes: IgG1; also called anti-CD20 GAb109
B7: G9 glycoengineered Rituximab (antibody, human IgG1, kappa)
heavy: not shown
light: B1 light
modifications: homogeneous afucosylated bisected Fc N-glycan (Asn-297): GlcNAc3Man3GlcNAc2
notes: IgG1; bisected glycan; also called anti-CD20 GAb107
B8: G8 glycoengineered Rituximab (antibody, human IgG1, kappa)
heavy: not shown
light: B1 light
modifications: homogeneous afucosylated Fc N-glycan (Asn-297): GlcNAcMan3GlcNAc2
notes: IgG1; also called anti-CD20 GAb110
B9: G7 glycoengineered Rituximab (antibody, human IgG1, kappa)
heavy: not shown
light: B1 light
modifications: homogeneous afucosylated Fc N-glycan (Asn-297): Man3GlcNAc2
notes: IgG1; also called anti-CD20 GAb111
B10: G1 glycoengineered Rituximab (antibody, human IgG1, kappa)
heavy: not shown
light: B1 light
modifications: homogeneous afucosylated Fc N-glycan (Asn-297): Gal2GlcNAc2Man3GlcNAc2
notes: IgG1; also called anti-CD20 GAb104

These binders were tested against T3, FcγRIIIa (UniProt P08637 17-208, limits assumed) (assay: SPR).
T3 construct: Soluble receptor used in ELISA and SPR; source and construct not described; also called FcRIIIA
T3 sequence (P08637 17-208 limits assumed): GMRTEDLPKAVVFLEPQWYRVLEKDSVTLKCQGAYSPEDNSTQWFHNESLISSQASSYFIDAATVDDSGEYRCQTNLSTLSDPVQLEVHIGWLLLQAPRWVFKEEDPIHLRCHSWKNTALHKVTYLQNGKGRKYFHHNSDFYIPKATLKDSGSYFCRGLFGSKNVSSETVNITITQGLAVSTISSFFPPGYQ
B1 was tested, and the Kd was 100 nM. Binder B2 has a Kd of 7 to 30 nM.

What follows are binders tested against T3, FcγRIIIa (assay: ELISA).
With B1 the EC50 was 6.2 to 9 nM. Work on B3 yielded an EC50 of 36.3 nM. B4 showed an EC50 of 0.24 to 0.27 nM.

These binders were tested against T1, FcγRIIa (assay: ELISA).
B1 was tested, and the EC50 was 5.4 nM. B5 was tested, and the EC50 was 16.5 nM. B4 gave an EC50 of 3 nM.

Each binder was assayed against T4, FcγRI (UniProt P12314 16-288, limits assumed) (assay: ELISA).
T4 construct: Used in ELISA; construct not described
T4 sequence (P12314 16-288 limits assumed): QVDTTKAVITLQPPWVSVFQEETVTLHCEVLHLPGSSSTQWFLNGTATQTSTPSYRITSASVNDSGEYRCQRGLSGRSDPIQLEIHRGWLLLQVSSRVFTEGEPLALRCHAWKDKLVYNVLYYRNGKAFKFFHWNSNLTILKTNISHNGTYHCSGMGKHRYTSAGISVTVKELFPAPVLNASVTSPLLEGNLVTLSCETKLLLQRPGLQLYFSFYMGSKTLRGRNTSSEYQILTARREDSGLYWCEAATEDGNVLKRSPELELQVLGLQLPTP
For B1, the EC50 was 0.19 nM. Binder B3 has an EC50 of 0.85 nM. With B4 the EC50 was 0.23 nM.

These binders were tested against T2, FcγRIIb (assay: ELISA).
Binder B1 has an EC50 of 0.51 nM. B5 gave an EC50 of 0.53 nM. B3 was tested, and the EC50 was 0.32 nM. B4 gave an EC50 of 0.28 nM.

Each binder was assayed against T5, C1q (UniProt P02745 23-245; P02746 28-253; P02747 29-245) (assay: ELISA).
T5 construct: Complement component C1q used in ELISA; source not described
T5 sequence (P02745 23-245 limits assumed, chain 1 of 3): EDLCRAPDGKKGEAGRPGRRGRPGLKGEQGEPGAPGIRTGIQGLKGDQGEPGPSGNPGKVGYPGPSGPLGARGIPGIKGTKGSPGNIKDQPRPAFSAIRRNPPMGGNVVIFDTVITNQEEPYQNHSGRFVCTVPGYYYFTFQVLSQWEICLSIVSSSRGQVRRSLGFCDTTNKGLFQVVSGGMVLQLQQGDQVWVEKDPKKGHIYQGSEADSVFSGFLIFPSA
T5 sequence (P02746 28-253 limits assumed, chain 2 of 3): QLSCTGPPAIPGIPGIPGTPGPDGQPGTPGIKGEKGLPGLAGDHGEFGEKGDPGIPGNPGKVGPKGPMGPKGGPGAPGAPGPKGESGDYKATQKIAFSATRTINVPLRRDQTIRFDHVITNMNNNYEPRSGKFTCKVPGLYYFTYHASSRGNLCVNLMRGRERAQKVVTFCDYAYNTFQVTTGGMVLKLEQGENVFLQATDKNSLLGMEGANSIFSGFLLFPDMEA
T5 sequence (P02747 29-245 limits assumed, chain 3 of 3): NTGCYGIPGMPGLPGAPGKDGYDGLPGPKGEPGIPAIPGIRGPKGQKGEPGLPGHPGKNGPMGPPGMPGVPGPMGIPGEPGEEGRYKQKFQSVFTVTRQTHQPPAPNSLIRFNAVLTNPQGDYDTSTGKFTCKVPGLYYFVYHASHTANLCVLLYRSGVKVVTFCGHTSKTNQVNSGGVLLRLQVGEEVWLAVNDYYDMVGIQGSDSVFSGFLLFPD
For B1, the EC50 was 6.5 nM. Work on B4 yielded an EC50 of 8 nM.

Each binder was assayed against T3, FcγRIIIa (assay: cell-based or functional assay).
With B1 the “EC50 (ug/ml), PBMC mediated ADCC on Raji cells” value (“EC50 (ug/ml) … on Raji cells” below) was 0.319 µg/mL, the “EC50 (ug/ml), PBMC mediated ADCC on Ramos cells” value was 4.38 µg/mL and the “EC50 (ug/ml), PBMC mediated ADCC on SKW6.4 cells” value (“EC50 (ug/ml) … on SKW6.4 cells” below) was 2.07 µg/mL. For B5, the “EC50 (ug/ml) … on Raji cells” value was 0.086 µg/mL, the “EC50 (ug/ml), PBMC mediated ADCC on Ramos cells” value was 1.45 µg/mL and the “EC50 (ug/ml) … on SKW6.4 cells” value was 1.22 µg/mL. With B4 the “EC50 (ug/ml) … on Raji cells” value was 0.022 µg/mL, the “EC50 (ug/ml), PBMC mediated ADCC on Ramos cells” value was 0.377 µg/mL and the “EC50 (ug/ml) … on SKW6.4 cells” value was 0.276 µg/mL.

These binders were tested against T5, C1q (assay: cell-based or functional assay).
In the case of B1, the “EC50 (ug/ml), CDC assay on Ramos cells, FACS” value (from here on “EC50 (ug/ml), CDC assay”) is reported as 0.033 µg/mL. For B5, the “EC50 (ug/ml), CDC assay” value was 0.086 µg/mL. B4 was tested, and the “EC50 (ug/ml), CDC assay” value was 0.039 µg/mL.

Each binder was assayed against T3, FcγRIIIa (assay: SPR; commercial Rituxan, not glycoengineered (reference)).
In the case of B1, the Kd is reported as ≤ 300 nM.

Each binder was assayed against T3, FcγRIIIa (assay: SPR, antibody captured with Human Fab capture kit, single cycle kinetics).
Description: Analyzed antibodies were captured by means of the Human Fab capture kit and detected with the single cycle kinetic method.
B2 gave a Kd of 27.2 nM. For B6, the Kd was 83.6 nM. With B7 the Kd was 26.2 nM. For B8, the Kd was 120 nM. B4 gave a Kd of 8.28 nM. For B9, the Kd was 62.7 nM. Work on B10 yielded a Kd of 9.33 nM.

Source: patent US20150344544A1 (ACADEMIA SINICA, published 2015)
